Laboratory results taken from patent US20240398899A1 (priority 2021, published 2024).

Experiments:
Type in all cases: cell-based, human
SH-SY5Y neuronal cells [1] = experiment: Sub (G0/G1) cell population by PI cell cycle assay against MPP+ iodide damage; details: MPP + Iodide (2 mM); for % Decrease in Apoptotic cells (wrt MPP + iodide): SubG0/G1
Description: After incubation as in Example 2a and 2b, cells were harvested by trypsinization and processed for Cell cycle assay as follows: Cell cycle reagent contains PI stain, which stains DNA of cells in different phases of cell cycle; Sub (G0/G1), G1, S, G2 and M. Cells in Sub (G0/G1) phase correspond to apoptotic cells.
Cells were gently harvested into pre-labelled centrifuge tubes and centrifuged at 450 g for 5 min, RT (low brake). The supernatants were removed carefully and discarded. 1 ml of 1×PBS was added to the pellet and resuspended gently to make homogenous suspension. Cells were centrifuged at 450 g for 5 min, RT (low brake). The supernatant was carefully removed leaving behind approximately 100 μl of PBS. Cells were resuspended gently yet thoroughly in residual PBS. The cells were fixed by adding Ice-cold 70% ethanol (100 μl) added dropwise into cells in each tube while vortexing at low speed Cells were stored at 4° C. for 24 h prior to staining.
Ethanol fixed cells were centrifuged at 450 g for 5 min, RT (low brake) the supernatant was carefully removed (not to touch the pellet) and discarded. 1 ml of 1×PBS was added into pellet and resuspended gently. Cells were incubated for 1 minute at RT. Cells were centrifuged at 450 g for 5 min, RT (low brake). (washing step) The supernatant was removed carefully leaving behind approx. 20 μl-50 μl of PBS. 200 μl of Cell Cycle reagent was added into each tube. Cells were resuspended gently and mixed. Cells were incubated for 30 min, RT, Dark. The stained samples were transferred into 96-well plates and acquired on flow cytometer (Guava technologies). Percentage of cells in Sub (G0/G1) phase were determined.
Percent inhibition in apoptotic cells=[(% Sub(G0/G1)cells in MPP+iodide alone) −(% Sub(G0/G1)cells in SEQ ID NO:1+MPP+iodide)/% Sub(G0/G1)cells in MPP+iodide alone]*100

SH-SY5Y neuronal cells [2] = experiment: Mitochondrial membrane potential against MPP+ iodide damage, JC-1 assay; details: MPP+ iodide 1 mM; for Mitochondrial membrane potential: red/green fluorescence ratio
Description: The plated cells were incubated overnight in 5% CO2 incubator at 37° C. After 24 h, cells were treated with concentrations of recombinant lectin protein having SEQ ID NO: 1 ranging from 1 μg/ml-50 μg/ml for 24 h. After 24 h of treatment, cells were exposed to damage (MPP+ iodide 1 mM) for 24 h. […] Untreated cells were included as control. Cells treated with Deprenyl served as positive control. After MPP+ iodide exposure, the protective effect of recombinant lectin protein having SEQ ID NO: 1 on mitochondrial membrane potential was assessed by JC-1 assay as follows; after incubation, the supernatants were discarded and 100 μl of JC1-dye solution (prepared by diluting 1 mM DMSO stock in to 10 μM in 1×PBS) was added to each well. The cells were then incubated with the dye in CO2 incubator at 37° C. for 15 min. After 15 min of incubation, the supernatant was removed, and the cells were washed twice with 1×PBS (phosphate buffer saline). 100 μl of 1×PBS was finally added to each well. Red fluorescence (excitation 550 nm, emission 600 nm) and green fluorescence (excitation 485 nm, emission 535 nm) were measured using Biotek Synergy HT plate reader. The mitochondrial membrane potential (Δψm) was calculated as the ratio of intensity of red fluorescence to intensity of green fluorescence described as follows: • Δψm=Intensity of red fluorescence/Intensity of green fluorescence • The percentage increase/restoration in Mitochondrial Membrane Potential against MPP+ iodide damage was calculated as:
[formula] • Where X=Δψm corresponding to SEQ ID NO: 1+ MPP+ iodide treated cells • R=Δψm corresponding to control cells (MPP+ iodide damage alone)

b-NGF = experiment: Alzheimer's biomarker multiplex analysis, scopolamine-damaged SH-SY5Y; details: Scopolamine (4 mM)
Description: (§1) After overnight incubation as in the previous examples, cells were treated with recombinant lectin protein having SEQ ID NO: 1 at different concentrations ranging from 0.001 μg/ml-1 μg/ml for 24 h for Parkinson disease and 0.01 μg/ml-25 μg/ml for 24 h for Alzheimer's disease. • Parkinson Disease: After 24 h of pre-treatment with recombinant lectin protein having SEQ ID NO: 1, cells were exposed (MPP+) for another 24 h. Cells treated with MPP+Iodide were included as Control. […] The cells treated with Galantamine were included as positive Control.
(§2) The levels of markers were determined by multiplex analysis as: Cell culture supernatants were diluted (1:2) with Calibrator Diluent. 50 μl of standard or sample was added per well. 50 μl of the microparticle cocktail was added to each well of the microplate and covered with a foil plate sealer. The plate was incubated for 2 hours at room temperature on a horizontal orbital microplate shaker. The plate was washed using a magnetic device designed to accommodate a microplate. Washing was done by applying the magnet to the bottom of the microplate, allowing 1 minute before removing the liquid, filling each well with wash buffer (100 μl) and allowing 1 minute before removing the liquid again. 50 μl of diluted Biotin-Antibody Cocktail was added to each well. Covered the plate with a foil plate sealer and incubated for 1 hour at room temperature on the shaker. Repeated the wash step. 50 μl of diluted Streptavidin-PE was added to each well. The plate was securely covered with a foil plate sealer and incubated for 30 minutes at room temperature on the shaker. Repeated the wash step. The microparticles were resuspended by adding 100 μl of Wash Buffer to each well. The plate was incubated for 2 minutes on the shaker and read within 90 minutes using Magpix® multiplex machine. Levels of biomarkers for Parkinson's and Alzheimer's disease were estimated using Magpix® multiplex machine.
(§3) For Alzheimer's disease the percent modulation in each sample was determined as follows: […]

RAGE = experiment: as above; details: Scopolamine (4 mM)
Description: as §1, §2, §3

MPO = experiment: as above; details: Scopolamine (4 mM)
Description: as §1, §2, §3

B1: SEQ ID NO: 1: variant of the S. rolfsii lectin amino acid sequence (reported as Rec-2 in WO2010/095143) (protein)
chain: TYKITVRVYQTNPDAFFHPVEKTVWKYANGGTWTITDDQHVLTMGGSGTSGTLRFHADNGESFTATFGVHNYKRWCDIVTNLAADETGMVINQQYYSQKNREEARERQLSNYQVKNAKGRNFQIVYTEAEGNDLHANLIIG
With B1 the “% Apoptotic cells (SubG0/G1)” value (SH-SY5Y neuronal cells [1]; 0.001 μg/mL) was 2.7%, the “% Decrease in Apoptotic cells (wrt MPP + iodide)” value (shortened to “% Decrease in Apoptotic cells”) (SH-SY5Y neuronal cells [1]; 0.001 μg/mL) was 18.8% and the “% Apoptotic cells (SubG0/G1)” value (SH-SY5Y neuronal cells [1]; 0.01 μg/mL) was 2.2%. The “% Decrease in Apoptotic cells” value (SH-SY5Y neuronal cells [1]; 0.01 μg/mL) was 33.5%, the “% Apoptotic cells (SubG0/G1)” value (SH-SY5Y neuronal cells [1]; 0.05 μg/mL) was 2.4% and the “% Decrease in Apoptotic cells” value (SH-SY5Y neuronal cells [1]; 0.05 μg/mL) was 29.9%. For the same molecule, the “% Apoptotic cells (SubG0/G1)” value (SH-SY5Y neuronal cells [1]; 0.1 μg/mL) was 2.4%, the “% Decrease in Apoptotic cells” value (SH-SY5Y neuronal cells [1]; 0.1 μg/mL) was 27.7% and the “% Apoptotic cells (SubG0/G1)” value (SH-SY5Y neuronal cells [1]; 1 μg/mL) was 2.2%. For the same molecule, the “% Decrease in Apoptotic cells” value (SH-SY5Y neuronal cells [1]; 1 μg/mL) was 35%, the “% Increase in Mitochondrial potential (w.r.t. control)” value (“% Increase in Mitochondrial potential” for short) (SH-SY5Y neuronal cells [2]; 1 μg/mL) was 22.7% and the Mitochondrial membrane potential (SH-SY5Y neuronal cells [2]; 1 μg/mL) was 2.3. For the same molecule, the “% Increase in Mitochondrial potential” value (SH-SY5Y neuronal cells [2]; 5 μg/mL) was 86.6%, the Mitochondrial membrane potential (SH-SY5Y neuronal cells [2]; 5 μg/mL) was 3.4 and the “% Increase in Mitochondrial potential” value (SH-SY5Y neuronal cells [2]; 10 μg/mL) was 115.9%. For the same molecule, the Mitochondrial membrane potential (SH-SY5Y neuronal cells [2]; 10 μg/mL) was 4, the “% Increase in Mitochondrial potential” value (SH-SY5Y neuronal cells [2]; 25 μg/mL) was 84.7% and the Mitochondrial membrane potential (SH-SY5Y neuronal cells [2]; 25 μg/mL) was 3.4. The “% Increase in Mitochondrial potential” value (SH-SY5Y neuronal cells [2]; 50 μg/mL) was 77.5%, the Mitochondrial membrane potential (SH-SY5Y neuronal cells [2]; 50 μg/mL) was 3.3 and the “% Change of Biomarkers markers (wrt Control) b-NGF” value (“% Change … (wrt Control) b-NGF” below) (b-NGF; 0.01 μg/mL) was 0%. The “% Change … (wrt Control) b-NGF” value (b-NGF; 0.1 μg/mL) was 0%, the “% Change … (wrt Control) b-NGF” value (b-NGF; 1 μg/mL) was −9% and the “% Change … (wrt Control) b-NGF” value (b-NGF; 10 μg/mL) was 41.1%. The “% Change … (wrt Control) b-NGF” value (b-NGF; 25 μg/mL) was 88.9%, the “% Change of Biomarkers markers (wrt Control) RAGE” value (“% Change … (wrt Control) RAGE” below) (RAGE; 0.01 μg/mL) was −19.3% and the “% Change … (wrt Control) RAGE” value (RAGE; 0.1 μg/mL) was 0%. For the same molecule, the “% Change … (wrt Control) RAGE” value (RAGE; 1 μg/mL) was −19.3%, the “% Change … (wrt Control) RAGE” value (RAGE; 10 μg/mL) was 16.3% and the “% Change … (wrt Control) RAGE” value (RAGE; 25 μg/mL) was −3%. For the same molecule, the “% Change of Biomarkers markers (wrt Control) MPO” value (shortened to “% Change … (wrt Control) MPO”) (MPO; 0.01 μg/mL) was 1.7%, the “% Change … (wrt Control) MPO” value (MPO; 0.1 μg/mL) was −64% and the “% Change … (wrt Control) MPO” value (MPO; 1 μg/mL) was −45.9%. For the same molecule, the “% Change … (wrt Control) MPO” value (MPO; 10 μg/mL) was 0% and the “% Change … (wrt Control) MPO” value (MPO; 25 μg/mL) was 0%.
